The source of these data is patent US12338268B2, “Compositions and methods for treating protein aggregation-associated diseases” (The Board of Trustees of the Leland Stanford Junior …, priority 2019, dated 2025).

The test system of series [1] is PolyQ35::YFP. Nature of the series: PolyQ35::YFP aggregation in C. elegans overexpressing NAC (fluorescence microscopy, SDD-AGE). It is filed as in vivo. The note with it: day 3 of adulthood. The text has this: NAC is a major ribosome-binding factor interacting broadly with nascent chains (del Alamo et al., 2011). However, its assumed chaperone function is poorly investigated. […] Although loss of NAC causes pleiotropic defects in C. elegans (Gamerdinger et al., 2015), this finding raises the possibility that NAC directly exerts a chaperone function on aggregation-prone proteins. In this case, overexpression of NAC should prevent aggregation of PolyQ proteins in vivo. Therefore, we used a C. elegans strain expressing 35 consecutive glutamine residues fused to YFP (PolyQ35::YFP) in body wall muscle cells. This PolyQ length is close to the aggregation threshold in C. elegans muscle cells, leading to progressive, age-dependent aggregation starting at day 2 of adulthood (Morley et al., 2002). We generated transgenic animals that overexpress FLAG-tagged α- and βNAC under the control of the muscle-specific myo-3 promoter. PolyQ aggregation was assessed at day 3 of adulthood by fluorescence microscopy as well as semi-denaturing detergent agarose gel electrophoresis (SDD-AGE), which detects high molecular weight oligomeric PolyQ species (Halfmann and Lindquist, 2008). […] This is evident by magnification of the head regions showing diffuse PolyQ35::YFP and less punctate PolyQ35::YFP structures when NAC was overexpressed (FIG. 1A, head region images). […] To directly test the potential chaperone function of NAC, we employed a peptide composed of 51 consecutive glutamines (PolyQ51) as a model substrate in a well-established in vitro aggregation assay. We initiated aggregation of PolyQ51 by cleaving a solubilizing GST tag with TEV protease and detected aggregates over time using a filter trap assay.
Worms were cultured according to standard techniques with E. coli OP50 as food source (Brenner, 1974). Transgenic strains were generated using standard microinjection protocols (Mello and Fire, 1995). […]

For series [2], the target named is T1, AtxQ78 (Homo sapiens, UniProt P54252, INS305QQQQQQQQQQQQQQQQQQQQQQQQQQQQQQQQQQQQQQQQQQQQQQQQQQQQQQQQQQQQQQQQ).
T1 construct: full-length Ataxin-3 harboring a stretch of 78 glutamines (AtxQ78); made in house
T1 sequence (P54252 with tags, fused parts or gaps with the stated changes): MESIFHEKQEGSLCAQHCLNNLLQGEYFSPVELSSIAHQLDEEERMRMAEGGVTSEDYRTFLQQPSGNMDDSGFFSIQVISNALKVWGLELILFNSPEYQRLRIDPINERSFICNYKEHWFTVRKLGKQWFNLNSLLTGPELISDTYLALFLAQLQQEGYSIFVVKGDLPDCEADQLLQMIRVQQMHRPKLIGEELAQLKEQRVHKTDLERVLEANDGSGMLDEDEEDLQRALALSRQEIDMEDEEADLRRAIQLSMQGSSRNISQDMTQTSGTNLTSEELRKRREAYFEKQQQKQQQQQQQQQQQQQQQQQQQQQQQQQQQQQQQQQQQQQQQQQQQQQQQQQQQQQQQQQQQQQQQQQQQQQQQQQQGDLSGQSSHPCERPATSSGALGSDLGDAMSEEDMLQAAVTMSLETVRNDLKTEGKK
As to the kind of experiment: Chemical crosslinking (BS3) and mass spectrometry of NAC-AtxQ78 complexes. The note with it: NAC and AtxQ78 1:1, BS3 crosslinker, LC-MS. It is filed as binding. As to the method: For crosslinking AtxQ78 was buffer exchanged into 10 mM sodium phosphate (pH 7.2) and added to NAC at a 1:1 ratio (20 μM NAC+20 μM AtxQ78). A 1:1 mixture of BS^3-d^0 and BS^3-d^4 was added to the proteins at 20× and 50× molar excess and the reaction allowed to proceed at room temperature for 1 hour before quenching with the addition of 50 mM Tris-Cl (pH 7.5). Samples were diluted with 2× loading buffer and separated on Tris-tricine gels followed by staining with InstantBlue (Expedeon).
Gel pieces containing the crosslinked complexes were washed with 25 mM ammonium bicarbonate (pH 7.8) for 1 h with shaking. The solution was removed and the pieces destained three times with 25 mM ammonium bicarbonate in 60% acetonitrile. Gel pieces were dehydrated with 100% acetonitrile for 10 min and left to air-dry in a laminar flowhood for 1 h. Rehydration of the gel pieces was achieved by adding 0.1 mg/ml trypsin solution and incubating the samples on ice for 30 min. Excess trypsin was removed and the samples were incubated at 37° C. and 1000 rpm overnight. Peptides were extracted from the gel using 3 washes with 60% acetonitrile/5% formic acid. The extracts were pooled and concentrated using a SpeedVac before being analyzed using a nanoACQUITY LC-system coupled to a Synapt HDMS G2Si mass spectrometer. […]

The test system of series [3] is PolyQ35::YFP C. elegans worms. Nature of the series: Paralysis assay. It is filed as in vivo. The note with it: overexpression; day 6 to 10 of adulthood. On the procedure:
To analyze the percentage of paralyzed worms, 100 semi-synchronized (timed egg lay for 5 h) young adult worms of each strain were placed on a plate containing 150 μM 5-fluorodeoxyuridine. Screening of paralyzed worms was started at day 6 of adulthood.

B1: NAC: nascent polypeptide-associated complex, heterodimer of αNAC and βNAC; species not given at the place (C. elegans icd-1/icd-2 when overexpressed in worms) (protein)
chain 1: MTGSTETRQKEVKEPQVDVSDDSDNEAVEQELTEEQRRVAEAAGLGDHIDKQAKQSRSEKKARKLFSKLGLKQVTGVSRVCIRKSKNILFVINKPDVFKSPGSDTYIIFGEAKIEDLTQHAQMSAIENLKPTREAPQLKTVEEDENEDVEEDSTGIEEKDIELVISQANTTRNKAIRALKEADNDIVNAIMSLTM
chain 2: MMDSKAIAERIKKLQAQQEHVRIGGKGTPRRKKKVIHKTAAADDKKLQSNLKKLSVTNIPGIEEVNMIKDDGTVIHFNNPKVQTSVPANTFSVTGSADNKQITEMLPGILNQLGPESLTHLKKLANNVTKLGPDGKGEDEDVPELVGDFDAASKNETKADEQ
For B1, the “insoluble high molecular weight PolyQ35::YFP aggregate species” value in series [1] (NAC overexpressing worms) was “less insoluble high molecular weight aggregate species”. In addition, the “PolyQ35::YFP aggregation” value in series [1] (overexpressed in body wall muscle cells (myo-3 promoter), fluorescence microscopy) was “effectively suppressed PolyQ35::YFP aggregation”. For the same molecule, in series [2], the “NAC regions crosslinked to AtxQ78” value was “predominantly crosslinked to AtxQ78 via the N-terminal regions of αNAC and βNAC”. Also, the “motility / age-associated paralysis of PolyQ35::YFP-expressing worms” value in series [3] is listed as “significantly improves motility”.
